Target: CV S-protein construct 6 trimer TP31001F (SARS-CoV-2, UniProt P0DTC2 14-1208)
Experiment: SPR

Binder	Kd [nM]
variant 6-46 (Fc fusion) VHH: EVQLVESGGGLVQPGGSLRLSCAASGLTFSAMGWFRQAPGKEREFVALIRRDGSTIYADSVKGRFTISADNSKNTAYLQMNSLKPEDTAVYYCAALGILFGYDAFDIWGQGTLVTVSS	1.9
variant 6-47 (Fc fusion) VHH: EVQLVESGGGLVQPGGSLRLSCAASGRTFSMHAMGWFRQAPGKERELVASITYGGNINYADSVKGRFTISADNSKNTAYLQMNSLKPEDTAVYYCAKEGYYDSTGYRTYFQQWGQGTLVTVSS	5.6
variant 6-49 (Fc fusion) VHH: EVQLVESGGGLVQPGGSLRLSCAASGSTVLINAMGWFRQAPGKEREFVAAISWSPGRTDYADSVKGRFTISADNSKNTAYLQMNSLKPEDTAVYYCARDCSGGSCYSGDYWGQGTLVTVSS	2.2
variant 6-50 (Fc fusion) VHH: EVQLVESGGGLVQPGGSLRLSCAASGFSFDRWAMGWFRQAPGKEREWVASLATGGNTNYADSVKGRFTISADNSKNTAYLQMNSLKPEDTAVYYCARVTNYDAFDIWGQGTLVTVSS	67.6
variant 6-51 (Fc fusion) VHH: EVQLVESGGGLVQPGGSLRLSCAASGYTYSSYVMGWFRQAPGKEREFVAAISRFGSTYYADSVKGRFTISADNSKNTAYLQMNSLKPEDTAVYYCARDSGEHFWDSGYIDHWGQGTLVTVSS	0.8
variant 6-52 (Fc fusion) VHH: EVQLVESGGGLVQPGGSLRLSCAASGDTYGSYWMGWFRQAPGKEREVVAAITSGGSTVYADSVKGRFTISADNSKNTAYLQMNSLKPEDTAVYYCARVDSRFDYWGQGTLVTVSS	1.1
variant 6-55 (Fc fusion, VHH-Fc) VHH: EVQLVESGGGLVQPGGSLRLSCAASGFTMSSSWMGWFRQAPGKEREFVARITSGGSTGYADSVKGRFTISADNSKNTAYLQMNSLKPEDTAVYYCASVDGYFDYWGQGTLVTVSS	0.3
variant 6-53 (Fc fusion) VHH: EVQLVESGGGLVQPGGSLRLSCAASGISINTNVMGWFRQAPGKEREFVAAISTGSVTIYADSVKGRFTISADNSKNTAYLQMNSLKPEDTAVYYCARVDDFGYFDLWGQGTLVTVSS	24.2
variant 6-54 (Fc fusion) VHH: EVQLVESGGGLVQPGGSLRLSCAASGFEFENHWMGWFRQAPGKEREYVAHITAGGLSNYADSVKGRFTISADNSKNTAYLQMNSLKPEDTAVYYCGRHWGIYDSSGFSSFDYWGQGTLVTVSS	0.9
variant 6-56 (Fc fusion) VHH: EVQLVESGGGLVQPGGSLRLSCAASGNIFRSNMGWFRQAPGKEREFVAGITWNGDTTYYADSVKGRFTISADNSKNTAYLQMNSLKPEDTAVYYCARALGVTYQFDYWGQGTLVTVSS	14.9
variant 6-57 (Fc fusion) VHH: EVQLVESGGGLVQPGGSLRLSCAASGLTFDDHSMGWFRQAPGKEREFVAAVPLSGNTYYADSVKGRFTISADNSKNTAYLQMNSLKPEDTAVYYCASFSGGPADFDYWGQGTLVTVSS	0.7
variant 6-58 (Fc fusion) VHH: EVQLVESGGGLVQPGGSLRLSCAASGRAVSTYAMGWFRQAPGKEREFVAAISGSENVTSYADSVKGRFTISADNSKNTAYLQMNSLKPEDTAVYYCLSVTGDTEDYGVFDTWGQGTLVTVSS	1
variant 6-60 (Fc fusion, VHH-Fc) VHH: EVQLVESGGGLVQPGGSLRLSCAASGDTYGSYWMGWFRQAPGKEREFVATISQSGAATAYADSVKGRFTISADNSKNTAYLQMNSLKPEDTAVYYCAGLLRYSGTYYDAFDVWGQGTLVTVSS	0.1
variant 6-62 (Fc fusion) VHH: EVQLVESGGGLVQPGGSLRLSCAASGSTFSGNWMGWFRQAPGKEREFVAVISWTGGSTYYADSVKGRFTISADNSKNTAYLQMNSLKPEDTAVYYCATHNSLSGFDYWGQGTLVTVSS	198
variant 6-66 (Fc fusion) VHH: EVQLVESGGGLVQPGGSLRLSCAASGLTFSLFAMGWFRQAPGKERELVAAISSGGSTDYADSVKGRFTISADNSKNTAYLQMNSLKPEDTAVYYCARGNTKYYYDSSGYSSAFDYWGQGTLVTVSS	7.7
variant 6-67 (Fc fusion) VHH: EVQLVESGGGLVQPGGSLRLSCAASGSFSNYAMGWFRQAPGKEREFVAAISSSGALTSYADSVKGRFTISADNSKNTAYLQMNSLKPEDTAVYYCWIVGPGPLDGMDVWGQGTLVTVSS	0.1
variant 6-68 (Fc fusion) VHH: EVQLVESGGGLVQPGGSLRLSCAASGFTLSDRAMGWFRQAPGKEREYVAHITAGGLSNYADSVKGRFTISADNSKNTAYLQMNSLKPEDTAVYYCVHLASQTGAGYFDLWGQGTLVTVSS	0.7
variant 6-70 (Fc fusion) VHH: EVQLVESGGGLVQPGGSLRLSCAASGFNLDDYADMGWFRQAPGKEREFVAAIGWGGGSTRYADSVKGRFTISADNSKNTAYLQMNSLKPEDTAVYYCAREILWFGEFGEPNVWGQGTLVTVSS	1.1

Binder	Kd [nM]
variant 6-71 (Fc fusion) VHH: EVQLVESGGGLVQPGGSLRLSCAASGITFSNDAMGWFRQAPGKEREFVAIITSSDTNDTTNYADSVKGRFTISADNSKNTAYLQMNSLKPEDTAVYYCARLHYYDSSGYFDYWGQGTLVTVSS	0.6
variant 6-72 (Fc fusion) VHH: EVQLVESGGGLVQPGGSLRLSCAASGSTLSINAMGWFRQAPGKEREFVAAIDWSGGSTAYADSVKGRFTISADNSKNTAYLQMNSLKPEDTAVYYCARDSSATRTGPDYWGQGTLVTVSS	2
variant 6-73 (Fc fusion, VHH-Fc) VHH: EVQLVESGGGLVQPGGSLRLSCAASGHTFSGYAMGWFRQAPGKEREFVAVITREGSTYYADSVKGRFTISADNSKNTAYLQMNSLKPEDTAVYYCARLGGEGFDYWGQGTLVTVSS	0.5
variant 6-74 (Fc fusion) VHH: EVQLVESGGGLVQPGGSLRLSCAASGFAFGDSWMGWFRQAPGKERELVAAITSGGSTDYADSVKGRFTISADNSKNTAYLQMNSLKPEDTAVYYCARGLLWFGELFGYWGQGTLVTVSS	498
variant 6-75 (Fc fusion) VHH: EVQLVESGGGLVQPGGSLRLSCAASGGTFSTYWMGWFRQAPGKEREFVAAISRSGGNTYYADSVKGRFTISADNSKNTAYLQMNSLKPEDTAVYYCVRHSGTDGDSSFDYWGQGTLVTVSS	1
variant 6-76 (Fc fusion, VHH-Fc) VHH: EVQLVESGGGLVQPGGSLRLSCAASGLAFDFDGMGWFRQAPGKEREGVAAINSGGSTYYADSVKGRFTISADNSKNTAYLQMNSLKPEDTAVYYCARFFRAHDYWGQGTLVTVSS	1.8
variant 6-78 (Fc fusion, VHH-Fc) VHH: EVQLVESGGGLVQPGGSLRLSCAASGRTYDAMGWFRQAPGKEREFVASVTSGGYTHYADSVKGRFTISADNSKNTAYLQMNSLKPEDTAVYYCAKFGRKIVGATELDYWGQGTLVTVSS	0.4
variant 6-82 (Fc fusion) VHH: EVQLVESGGGLVQPGGSLRLSCAASGSSLDAYGMGWFRQAPGKEREFVAAISWGGGSIYYADSVKGRFTISADNSKNTAYLQMNSLKPEDTAVYYCARLSQGMVALDYWGQGTLVTVSS	0.6
variant 6-84 (Fc fusion) VHH: EVQLVESGGGLVQPGGSLRLSCAASGFTPDDYAMGWFRQAPGKEREFVAAINSGGSYTYYADSVKGRFTISADNSKNTAYLQMNSLKPEDTAVYYCARDRGPWGQGTLVTVSS	0.7
variant 6-90 (Fc fusion) VHH: EVQLVESGGGLVQPGGSLRLSCAASGFPFSIWPMGWFRQAPGKEREFVAAVRWSSTYYADSVKGRFTISADNSKNTAYLQMNSLKPEDTAVYYCATGECDGGSCSLAYWGQGTLVTVSS	17.1
variant 6-95 (Fc fusion) VHH: EVQLVESGGGLVQPGGSLRLSCAASGIPSSIRAMGWFRQAPGKEREFVAVIRWTGGSTYYADSVKGRFTISADNSKNTAYLQMNSLKPEDTAVYYCARDIGYYDSSGYYNDGGFDYWGQGTLVTVSS	7.6
variant 6-97 (Fc fusion) VHH: EVQLVESGGGLVQPGGSLRLSCAASGFTFSSLAMGWFRQAPGKEREFVAAITWSGDITNYADSVKGRFTITADNSKNTAYLQMNSLKPEDTAVYYCLRLSSSGFDHWGQGTLVTVSS	57.9
variant 6-99 (Fc fusion) VHH: EVQLVESGGGLVQPGGSLRLSCAASGIPFRSRTMGWFRQAPGKEREFVAGISRSGASTAYADSVKGRFTISADNSKNTAYLQMNSLKPEDTAVYYCTHANDYGDYWGQGTLVTVSS	3.4
variant 6-102 (Fc fusion) VHH: EVQLVESGGGLVQPGGSLRLSCAASGSSFSAYAMGWFRQAPGKEREFVSAIDSEGTTTYADSVKGRFTISADNSKNTAYLQMNSLKPEDTAVYYCAGDYNFWSGFDHWGQGTLVTVSS	0.9
variant 6-103 (Fc fusion) VHH: EVQLVESGGGLVQPGGSLRLSCAASGRTSSPIAMGWFRQAPGKEREPVAVRWSDDYTYYADSVKGRFTISADNSKNTAYLQMNSLKPEDTAVYYCAKKLGGYYAFDIWGQGTLVTVSS	1
variant 6-106 (Fc fusion) VHH: EVQLVESGGGLVQPGGSLRLSCAASGIPSTLRAMGWFRQAPGKEREFVAATSWSGGSKYYADSVKGRFTISADNSKNTAYLQMNSLKPEDTAVYYCATDLYYMDVWGQGTLVTVSS	1070
variant 6-108 (Fc fusion) VHH: EVQLVESGGGLVQPGGSLRLSCAASGGTFGSYGMGWFRQAPGKEREFVAAIRWSGGITYYADSVKGRFTISADNSKNTAYLQMNSLKPEDTAVYYCARERYWNPLPYYYYGMDVWGQGTLVTVSS	0.3

Source: patent US20210355194A1 (TWIST BIOSCIENCE, published 2021)
